# B1: cardiotrophin-1 (protein, UniProt Q16619 1-201, looked up)
# Cardiotrophin-1: MSRREGSLEDPQTDSSVSLLPHLEAKIRQTHSLAHLLTKYAEQLLQEYVQLQGDPFGLPSFSPPRLPVAGLSAPAPSHAGLPVHERLRLDAAALAALPPLLDAVCRRQAELNPRAPRLLRRLEDAARQARALGAAVEALLAALGAANRGPRAEPPAATASAASATGVFPAKVLGLRVCGLYREWLSRTEGDLGQLLPGGSA
# notes: gp130 signaling cytokine of the LIF or IL-6 superfamily; 201 amino acids as a mature protein, 21.5 kDa
# Key:
# cardiac fibroblasts [1] = test: Protein synthesis assay (3H-leucine incorporation); assay type: cell-based, rat; details: CT-1 for 24 hours
# Protocol: Protein synthesis was determined using the methods of Wolf and Neilson (Wolf and Neilson, 1990, Am J Physiol 259: 768-777). 2.5×10^4 cells (counted with a hemacytometer) were loaded into each well of 24-well plates, allowed to attach overnight, then rendered quiescent in serum free DMEM/F12 for 24 hours. Cells were stimulated with CT-1 for an additional 24 hours in the presence of 2 μCi/mL ^3H-leucine with or without inhibitors of signaling pathways. The culture media was aspirated, cells rinsed twice with phosphate buffered saline and proteins precipitated by two incubations with 10% TCA at room temperature. The precipitated protein was solubilized in 300 μl lysis buffer containing 0.5 M NaOH and 1% Triton X-100 at room temperature for 15 minutes. The lysate was transferred to scintillation vials, and beta emission was determined with 3 ml Ecolume scintillation fluid (ICN Pharmaceuticals) and a scintillation counter (LS6500, Beckman Coulter, Fullerton, Calif.).
# rat cardiac fibroblasts = test: Boyden chamber migration assay; assay type: cell-based
# Protocol: Migration of rat cardiac fibroblasts was measured using Boyden chamber (Neuro Probe Inc. Gaithersburg, Md.) assay (Richards and McCullough, 1984, Immunol Commun 13: 49-62). Chemoattractants were diluted in DMEM/F12 and loaded into the lower wells at specified concentrations. The polycarbonate membrane (5 μm pore) was placed over the wells, and 55 μL cell suspension in DMEM/F12 supplemented with 100 μM ascorbate was loaded into each well (1000 cells/mm^2). The chamber was incubated overnight in 5% CO2 and 100% humidity at 37° C. Cells that had migrated through the membrane and become adherent to the lower surface were fixed with methanol and stained with Diff-Quick stain (Dade Behring AG, Düdingen, Switzerland). Cell migration was determined by counting the number of cells per high power field.
# cardiac myofibroblasts = test: Estimation of membrane potential with DiBAC4(3) dye; assay type: cell-based, rat; details: superfusion with CT-1 for 4 minutes
# Protocol: Myofibroblast membrane potential was estimated using voltage sensitive DiBAC4(3) dye (Molecular Probes, Eugene, Oreg.). […] First passage myofibroblasts were plated on glass coverslips, allowed to attach, then incubated with 1 μM DiBAC4(3) in control solution containing: NaCl (140 mM), KCl (5 mM), HEPES (10 mM), CaCl2 (2.0 mM), MgCl2 (1.4 mM) and glucose (10 mM) for 20 minutes. The cells were visualized at 400× on an inverted microscope (Nikon Canada). DiBAC4 (3) was excited at 470 nm wavelength and emitted light at 525 nm was digitized and stored (Photon Technology International, Lawrenceville, N.J.). Fluorescence intensity was normalized to maximum fluorescence observed throughout the experiment. To ensure fluorescence intensity changes in response to altered membrane potential were occurring as expected, the cells were superfused with Tyrode's solution containing 1 μM DiBAC4(3) and 1.5 mM KCl or 15 mM KCl. Under these control conditions, DiBAC4(3) fluorescence decreased or increased indicating hyperpolarization or depolarization, respectively. For CT-1 experiments, CT-1 was diluted in control solution containing 1 μM DiBAC4(3). After ensuring a stable fluorescence signal, the cells were superfused with the CT-1 containing solution for 4 minutes, followed by washout. Fluorescence was monitored for a total of 10 minutes.
# cardiac fibroblasts [2] = test: Western analysis of signaling pathways activated by CT-1 in cardiac fibroblasts; assay type: cell-based, rat; details: cardiac fibroblasts incubated with CT-1
# Protocol: Fibroblasts were isolated from the hearts of 200-250 g adult male Sprague-Dawley rats as previously described (Hao et al., 2000, Am J Physiol Heart Circ Physiol 279: H3020-H3030). Briefly, hearts were subjected to Langendorff perfusion at 37° C. with Joklik's medium containing 0.1% collagenase (Worthington Biochemical Corporation, Lakewood, N.J.) for 20-25 minutes. Collagenase was neutralized by addition of an equal volume of DMEM/F12 medium containing 10% FBS and liberated cells were collected by centrifugation at 500×g for 5 minutes. Cells were resuspended in fresh DMEM/F12 containing 10% FBS and plated on 75 cm^2 culture flasks at 37° C. with 5% CO2 for 3 hours. Non adherent cells (myocytes) were removed by changing the culture media and adherent cells (mainly fibroblasts) were incubated in DMEM/F12 containing 10% FBS, 100 U/mL penicillin, 100 μg/mL streptomycin, and 100 μM ascorbate. Fibroblasts were used for experiments after the second passage and the purity of these cells was ≧95%, using routine phenotyping methods as previously described (Peterson et al., 1999, Cardiovasc Res 41: 575-585). […] Cells were rendered quiescent by incubation in serum-free medium for 24 hours then stimulated with CT-1 for specified times and lysed in RIPA buffer (150 mM NaCl, 1% Triton X-100, 0.5% deoxycholate, 0.1% SDS, 50 mM Tris) with 1× protease inhibitor cocktail (Sigma-Aldrich, Oakville, Ontario) and 10 mM NaF, 1 mM Na3VO4 and 1 mM EGTA.
# Protein concentrations of tissue and cell lysates were determined by the BCA method (Smith et al., 1985, Anal Biochem 150: 76-85). Proteins were separated by 8-12% SDS-PAGE and transferred to PVDF membrane (Roche, Indianapolis, Ind.) for 1 hour at 300 mA for small proteins or for 2 hours at 500 mA for proteins greater than 100 kDa. Membranes were blocked with 5% non-fat skim milk in tris-buffered saline containing 0.2% Tween 20 (TBST). […] Band intensity was quantified using a CCD camera imaging densitometer (GS670, Bio-Rad Laboratories (Canada) Ltd. Mississauga, Ontario). […]
molecule,measurement,setting,value
B1,protein synthesis (3H-leucine incorporation),cardiac fibroblasts [1],dose-dependent increase in protein synthesis
same,cardiac fibroblast migration,"rat cardiac fibroblasts; CT-1 gradient, overnight",induced cardiac fibroblast migration in a dose dependent manner
same,dependence of CT-1 induced migration,rat cardiac fibroblasts; ion channel and myosin light chain kinase function,dependent on functioning potassium channels and myosin light chain kinase
same,dependence of CT-1 chemotaxis,"rat cardiac fibroblasts; specific inhibitors of signaling pathways, integrin inhibitors",dependent on intracellular signaling pathways
same,cell membrane potential (DiBAC4(3) fluorescence),cardiac myofibroblasts,pronounced hyperpolarization
same,"phosphorylation of gp130, Jak1, Jak2, STAT3, STAT1",cardiac fibroblasts [2],resulted in phosphorylation
same,"phosphorylation of p42/44 MAPK, p38 MAPK, JNK and Src",cardiac fibroblasts [2],observed phosphorylation
same,Phosphorylation of STAT5 or STAT6,cardiac fibroblasts [2]; data not shown,not observed

# From patent US20050171004A1, “Use of cardiotrophin-1 to promote wound healing and counteract overt fibrosis” (priority 2003, published 2005)
